Article PMC2958364 (Journal of molecular biology, 2008)

How the values were obtained:
[1] = biological target: αvβ3 integrin, immobilized (Homo sapiens (assumed), UniProt P06756;P05106); experiment: ELISA
[2] = biological target: αvβ6 integrin, purified from CHO αvβ6 cells (Homo sapiens (assumed), recombinant …, UniProt P06756;P18564); experiment: ELISA
[3] = biological target: αvβ6 integrin on A375Pβ6 cells (Homo sapiens (A375P alpha-V, human …, UniProt P06756;P18564)); experiment: flow cytometry on cells
Sequence of αvβ6 integrin on A375Pβ6 cells (Homo sapiens (P06756 31-1048, stated change not applied, chain 1 of 2): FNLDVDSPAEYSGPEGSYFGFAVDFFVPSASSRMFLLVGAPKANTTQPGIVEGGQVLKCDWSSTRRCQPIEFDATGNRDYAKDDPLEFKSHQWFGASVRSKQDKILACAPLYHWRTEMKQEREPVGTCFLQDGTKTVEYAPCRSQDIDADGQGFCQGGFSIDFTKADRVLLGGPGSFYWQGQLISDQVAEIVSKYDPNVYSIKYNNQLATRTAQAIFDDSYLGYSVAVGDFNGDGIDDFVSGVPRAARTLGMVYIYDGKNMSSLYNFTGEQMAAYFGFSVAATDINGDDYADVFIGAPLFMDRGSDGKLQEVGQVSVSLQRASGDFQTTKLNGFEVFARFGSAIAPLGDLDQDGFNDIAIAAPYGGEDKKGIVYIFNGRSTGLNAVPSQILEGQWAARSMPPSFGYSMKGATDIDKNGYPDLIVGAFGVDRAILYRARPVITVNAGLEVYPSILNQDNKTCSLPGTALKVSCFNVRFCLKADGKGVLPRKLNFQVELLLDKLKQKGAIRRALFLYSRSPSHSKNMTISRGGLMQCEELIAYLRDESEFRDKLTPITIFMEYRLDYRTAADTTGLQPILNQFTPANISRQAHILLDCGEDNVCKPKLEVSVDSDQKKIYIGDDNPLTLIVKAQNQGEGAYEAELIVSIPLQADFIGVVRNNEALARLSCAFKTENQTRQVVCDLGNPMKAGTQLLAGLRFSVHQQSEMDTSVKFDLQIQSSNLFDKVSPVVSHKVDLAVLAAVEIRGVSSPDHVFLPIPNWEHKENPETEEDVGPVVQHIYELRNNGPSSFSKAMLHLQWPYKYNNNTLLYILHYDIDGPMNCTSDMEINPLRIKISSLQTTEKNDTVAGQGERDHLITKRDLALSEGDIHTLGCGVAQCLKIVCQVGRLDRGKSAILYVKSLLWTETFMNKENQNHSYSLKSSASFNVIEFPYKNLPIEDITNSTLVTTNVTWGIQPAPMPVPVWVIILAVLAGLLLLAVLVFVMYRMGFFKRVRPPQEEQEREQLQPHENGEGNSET
Sequence of αvβ6 integrin on A375Pβ6 cells (Homo sapiens (P18564 22-788, chain 2 of 2): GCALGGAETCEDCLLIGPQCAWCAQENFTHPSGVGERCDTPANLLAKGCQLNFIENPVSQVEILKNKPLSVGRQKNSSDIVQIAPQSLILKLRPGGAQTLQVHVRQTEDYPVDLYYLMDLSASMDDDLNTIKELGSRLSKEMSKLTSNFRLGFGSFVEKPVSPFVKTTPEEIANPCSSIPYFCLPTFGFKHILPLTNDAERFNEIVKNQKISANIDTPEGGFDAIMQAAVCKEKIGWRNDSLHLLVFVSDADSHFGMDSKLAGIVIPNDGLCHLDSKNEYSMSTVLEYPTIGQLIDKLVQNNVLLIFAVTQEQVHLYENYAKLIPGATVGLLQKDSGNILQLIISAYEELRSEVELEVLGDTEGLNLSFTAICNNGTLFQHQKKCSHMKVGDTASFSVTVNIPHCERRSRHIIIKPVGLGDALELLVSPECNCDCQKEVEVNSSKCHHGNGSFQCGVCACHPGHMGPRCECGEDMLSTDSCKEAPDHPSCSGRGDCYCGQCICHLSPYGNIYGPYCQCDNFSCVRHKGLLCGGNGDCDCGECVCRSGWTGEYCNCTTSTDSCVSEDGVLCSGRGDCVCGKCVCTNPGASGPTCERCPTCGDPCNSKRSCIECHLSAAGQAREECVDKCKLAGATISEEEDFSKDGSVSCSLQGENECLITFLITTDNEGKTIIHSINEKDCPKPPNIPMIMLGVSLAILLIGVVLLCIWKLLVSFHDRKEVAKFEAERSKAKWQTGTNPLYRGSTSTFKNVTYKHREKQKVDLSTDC

Sequence of αvβ3 integrin, immobilized (P06756 31-1048, chain 1 of 2): as the sequence (P06756 31-1048, stated change not applied, chain 1 of 2) above
Sequence of αvβ3 integrin, immobilized (P05106 27-718, chain 2 of 2): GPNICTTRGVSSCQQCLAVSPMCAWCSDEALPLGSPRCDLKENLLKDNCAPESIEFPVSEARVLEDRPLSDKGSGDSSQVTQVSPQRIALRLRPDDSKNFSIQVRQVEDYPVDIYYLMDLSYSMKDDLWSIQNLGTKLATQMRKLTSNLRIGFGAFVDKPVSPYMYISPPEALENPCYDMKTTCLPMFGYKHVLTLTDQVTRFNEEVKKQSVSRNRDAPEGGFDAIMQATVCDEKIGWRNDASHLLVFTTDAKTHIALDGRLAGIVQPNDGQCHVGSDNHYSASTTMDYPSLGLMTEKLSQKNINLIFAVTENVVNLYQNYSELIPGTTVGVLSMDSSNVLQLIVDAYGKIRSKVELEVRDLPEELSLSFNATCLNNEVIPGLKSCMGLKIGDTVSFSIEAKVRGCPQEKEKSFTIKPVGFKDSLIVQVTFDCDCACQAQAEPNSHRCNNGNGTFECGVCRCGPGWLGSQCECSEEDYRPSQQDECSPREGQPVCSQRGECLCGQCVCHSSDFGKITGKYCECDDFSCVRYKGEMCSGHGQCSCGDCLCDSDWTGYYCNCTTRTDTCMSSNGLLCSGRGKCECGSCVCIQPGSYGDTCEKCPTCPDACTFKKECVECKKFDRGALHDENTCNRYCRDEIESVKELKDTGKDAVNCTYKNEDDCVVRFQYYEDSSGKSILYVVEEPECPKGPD
Sequence of αvβ6 integrin, purified from CHO αvβ6 cells (P06756 31-1048, chain 1 of 2): as the sequence (P06756 31-1048, stated change not applied, chain 1 of 2) above
Sequence of αvβ6 integrin, purified from CHO αvβ6 cells (P18564 22-788, chain 2 of 2): as the sequence (P18564 22-788, chain 2 of 2) above

B1: MFE-23 (scFv, V domains shown)
VH: QVKLQQSGAELVRSGTSVKLSCTASGFNIKDSYMHWLRQGPEQGLEWIGWIDPENGDTEYAPKFQGKATFTTDTSSNTAYLQLSSLTSEDTAVYYCNEGTPTGPYYFDYWGQGTTVTVSS
VL: ENVLTQSPAIMSASPGEKVTITCSASSSVSYMHWFQQKPGTSPKLWIYSTSNLASGVPARFSGSGSGTSYSLTISRMEAEDAATYYCQQRSSYPLTFGAGTKLELK
- binding result [1]: no binding (tested: 5 μg/ml)
- binding result [2]: no binding (tested: 5 μg/ml)
- binding result [3]: no binding (tested: 50 μg/ml)
